Experimental data as given in paper PMC4538822, “Ribosomal protein L10(L12)4 autoregulates expression of the Bacillus subtilis rplJL operon by a transcription attenuation mechanism”.

T1: L10(L12)4 complex (ribosomal proteins L10 and L12) (Bacillus subtilis (source strain of the …, UniProt P42923;P02394 1-166;1-123))
T1 sequence 1: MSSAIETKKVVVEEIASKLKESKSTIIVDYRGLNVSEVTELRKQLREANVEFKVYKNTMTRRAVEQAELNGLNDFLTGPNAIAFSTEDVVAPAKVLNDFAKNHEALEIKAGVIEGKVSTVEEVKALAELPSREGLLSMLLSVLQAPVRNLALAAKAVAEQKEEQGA
T1 sequence 2: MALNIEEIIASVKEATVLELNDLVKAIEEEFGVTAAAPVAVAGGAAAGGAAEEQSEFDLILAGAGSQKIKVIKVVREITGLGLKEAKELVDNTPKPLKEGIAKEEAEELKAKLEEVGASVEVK


What was measured:
[1] = biological target: T1, L10(L12)4 complex (ribosomal proteins …); assay: filter binding; 3 mM Mg2+; yeast RNA competitor 0.2 mg/ml; apparent Kd; Filter binding: 30 mM Tris-HCl pH 7.6, 175 mM KCl, 3 mM MgCl2, 10% glycerol, 0.2 mg/ml yeast RNA, 50 ug/ml BSA, 0.01 nM RNA, 37 C 30 min; in-line probing: 50 mM Tris-HCl pH 8.3, 20 mM MgCl2, 100 mM KCl, 15% glycerol, 25 C 40 h; boundary: 37 C 30 min; settings: protein: recombinant; tags: N-terminal His6 on L10; L12 native; copies: 1;4; label: 5' 32P; anti-antiterminator (AAT) structure with kink-turn
[2] = biological target: T1, L10(L12)4 complex (ribosomal proteins …); assay: 3' boundary analysis (native gel EMSA); 1 or 3 uM L10(L12)4; Filter binding: 30 mM Tris-HCl pH 7.6, 175 mM KCl, 3 mM MgCl2, 10% glycerol, 0.2 mg/ml yeast RNA, 50 ug/ml BSA, 0.01 nM RNA, 37 C 30 min; in-line probing: 50 mM Tris-HCl pH 8.3, 20 mM MgCl2, 100 mM KCl, 15% glycerol, 25 C 40 h; boundary: 37 C 30 min; settings: protein: recombinant, tags: N-terminal His6 on L10, copies: 1;4, label: 5' 32P, AAT structure complete (3' end of AAT at +72)

Binder | Kd [1] [nM] | binding result [2]
rplJL leader RNA +13 to +118 (structured_RNA) RNA: AAUAUCAUUUAUACCGUAGACAGUAGGGGCCUAACCGCUUAAUUAUCCUACCGAGGUGUAUAUUAUCACAGCUAUUACGUUACGUAUGCUUGUAUAUACAGCCUCC | 33 ± 10 | 
rplJL leader RNA +13 to +76 (3' boundary, bound) (structured_RNA) RNA: AAUAUCAUUUAUACCGUAGACAGUAGGGGCCUAACCGCUUAAUUAUCCUACCGAGGUGUAUAUU |  | binds
